The values that follow come from paper PMC2954335.

The assay has as its target ecCTLA-4 (Escherichia coli-expressed monomeric form of CTLA-4, extracellular region vl-Ig 1-124, cysteine 122 mutated to serine) (UniProt P16410). Nature of the assay: SEC; monomeric ecCTLA-4 concentrated to 10 mg/ml, incubated 24 h at room temperature, then analytical size-exclusion chromatography with calibration curve; monomer to strand-swapped dimer and larger species. A general note: In gel filtration, larger molecules generally elute earlier.

One may read the stoichiometry N as the number of molecules, sites or subunits per partner or assembly. Take “ecCTLA-4 (Escherichia coli-expressed monomeric form of CTLA-4, extracellular region vl-Ig 1-124, cysteine 122 mutated to serine) (from UniProt P16410 36-159) (domain or fragment)”: the stoichiometry N was > 2.
